Measurements taken from patent US20220389077A1, “ALLOGENEIC CELL COMPOSITIONS AND METHODS OF USE” (Poseida Therapeutics, Inc., priority 2018, published 2022).
Where a chain is given by its changes, count along the chain named. Names may count otherwise. Blank lines part the entries; values can stand above or below the molecule they belong to.

Key:
[1] = target: T1, human CD58 (Homo sapiens, UniProt P19256); assay: T cell degranulation (CD107a) against CD58-positive cell targets; format: cell-based; settings: 4-6 hours coculture, K562 or Rat2 cells with mRNA encoding human CD58
T1 construct: expressed in transfected cells; host or cells: K562 (electroporated) or Rat2 (lipofected) cells
T1 sequence (P19256 29-250): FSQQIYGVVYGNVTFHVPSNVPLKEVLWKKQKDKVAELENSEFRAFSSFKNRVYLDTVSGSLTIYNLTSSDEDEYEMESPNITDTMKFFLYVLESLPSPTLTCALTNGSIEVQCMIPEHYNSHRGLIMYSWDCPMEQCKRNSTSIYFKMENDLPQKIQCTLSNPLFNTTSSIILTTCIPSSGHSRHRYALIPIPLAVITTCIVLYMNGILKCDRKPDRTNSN
Experimental: FIG. 23B is a series of bar graphs showing CSR CD2z mutant degranulation data. The panel of CSR CD2z mutants was tested for the capability of mediating degranulation against CD58-positive cell targets. T cell degranulation is a surrogate of T cell killing that can be measured by FACS staining for intracellular CD107a expression following coculture with target cell lines expressing target antigen. Specifically, pan T cells from normal blood donors were stimulated with anti-CD3/anti-CD28 beads in standard T cell culture media, then rested. These cells were then electroporated (BTX ECM 830 electroporator @ 500V for 700 μs) with 9 μg of mRNA expressing CSR CD2z mutants and cultured overnight. The next day, the cells were cocultured for 4-6 hours in the presence of various target cell lines. Positive target cell lines included K562 cells or Rat2 cells that were electroporated or lipofected, respectively, with mRNA encoding human CD58, while negative controls were either Rat2 cells that were not electroporated or CSR CD2z mutant expressing T cells alone.
(§1) FIG. 23C is a summary of staining and degranulation data. Data from surface-expression and binding studies, as well as those from degranulation experiments for each CSR CD2z mutant is summarized in the table.
FIG. 23D is a series of flow cytometry plots showing the expression of CD48, CD58 or CD59 on K562 and Rat2 cells. To confirm possible ligands for the CSR WT CD2z molecule, a panel of known and suspected ligands including human CD48, CD58, and CD59 were tested. Degranulation of engineered T cells was evaluated against the cell lines K562 and Rat2 that were made to overexpress the target ligands and confirmed for expression by FACS staining. Red histograms are unstained cells and blue histograms are cells that were electroporated/lipofected with mRNA and then stained for expression of the respective marker by FACS.
FIG. 23E is a bar graph showing that CSR CD2z recognizes human CD58, but not CD48 or CD59. To confirm possible ligands for the CSR WT CD2z molecule, a panel of known and suspected ligands including human CD48, CD58, and CD59 were tested. Degranulation of engineered T cells was evaluated against the cell lines K562 and Rat2 that were made to overexpress the target ligands and confirmed for expression by FACS staining. Cells were electroporated/lipofected with mRNA and then stained for expression of the respective marker by FACS. As a control, a BCMA CAR was included as well as a K562 cell line overexpressing BCMA. In addition, T cells transfected with GFP were also included as a control. T cell degranulation is a surrogate of T cell killing that can be measured by FACS staining for intracellular CD107a expression following coculture with target cell lines expressing target antigen. Pan T cells from normal blood donors were stimulated with anti-CD3/anti-CD28 beads in standard T cell culture media, then rested. These T cells were then electroporated with mRNA expressing CSR WT CD2z, BCMA CAR, or GFP and cultured overnight. The next day, the cells were cocultured for 4-6 hours in the presence of the various target cell lines that were electroporate/lipofected with mRNA encoding human CD48, CD58 or CD59, while negative controls were either K562 or Rat2 cells that were not electroporated/lipofected, or each of the electroporated T cells alone.

[2] = system: anti-CD2 activator reagent, anti-CD2 monoclonal antibody (clone TS1/8), anti-CD2 polyclonal antibody reagent; assay: CSR CD2z mutant surface expression and staining with anti-CD2 antibody reagents in K562 cells; format: binding; settings: 9 μg mRNA, next day
Experimental: FIG. 23A is a bar graph showing CSR CD2z mutant staining data. A panel of CSR CD2z mutants was designed, constructed, and tested for surface expression and binding to several anti-CD2 antibody reagents. To do so, each mutant was synthesized, subcloned into an in-house mRNA production vector, and then high-quality mRNA was produced for each. K562 cells were electroporated with 9 μg of mRNA, and surface-expression of each molecule was analyzed by flow cytometry the next day and data are shown as bar graphs. Each molecule was stained with anti-CD2 activator reagent, anti-CD2 monoclonal antibody (clone TS1/8), or anti-CD2 polyclonal antibody reagent (goat anti-human CD2).
as §1

degranulation (CD107a) against CD58 [1]: Little reactivity
B1: K67R/Y110D: CSR CD2z mutant within the extracellular domain of CD2 (protein)
chain: KEITNALETWGALGQDINLDIPSFQMSDDIDDIKWEKTSDKKRIAQFRKEKETFKEKDTYKLFKNGTLKIKHLKTDDQDIYKVSIDDTKGKNVLEKIFDLKIQERVSKPKISWTCINTTLTCEVMNGTDPELNLYQDGKHLKLSQRVITHKWTTSLSAKFKCTAGNKVSKESSVEPVSCPEKGLDIYLIIGICGGGSLLMVFVALLVFYITKRKKQRSRRNDEELETRAHRVATEERGRKPHQIPASTPQNPATSQHPPPPPGHRSQAPSHRPPPPGHRVQHQPQKRPPAPSGTQVHQQKGPPLPRPRVQPKPPHGAAENSLSPSSNRVKFSRSADAPAYKQGQNQLYNELNLGRREEYDVLDKRRGRDPEMGGKPRRKNPQEGLYNELQKDKMAEAYSEIGMKGERRRGKGHDGLYQGLSTATKDTYDALHMQALPPR
degranulation (CD107a) against CD58 ([1]; listed as K67R/Y1101D): do not mediate anti-CD58 degranulation activity
surface expression and binding of anti-CD2 staining reagents [2]: expressed on the surface and/or retain binding to the anti-CD2 activator reagent

degranulation (CD107a) against CD58 [1]: Little reactivity
B2: K67R/Q70K/Y110D/D111H: CSR CD2z mutant within the extracellular domain of CD2 (protein)
chain: B1 chain with Q46K, D87H

degranulation (CD107a) against CD58 [1]: Little reactivity
B3: Delta K106-120: CSR CD2z mutant of the panel (protein)
chain: KEITNALETWGALGQDINLDIPSFQMSDDIDDIKWEKTSDKKKIAQFRKEKETFKEKDTYKLFKNGTLKIKHLKTDDQDIYIFDLKIQERVSKPKISWTCINTTLTCEVMNGTDPELNLYQDGKHLKLSQRVITHKWTTSLSAKFKCTAGNKVSKESSVEPVSCPEKGLDIYLIIGICGGGSLLMVFVALLVFYITKRKKQRSRRNDEELETRAHRVATEERGRKPHQIPASTPQNPATSQHPPPPPGHRSQAPSHRPPPPGHRVQHQPQKRPPAPSGTQVHQQKGPPLPRPRVQPKPPHGAAENSLSPSSNRVKFSRSADAPAYKQGQNQLYNELNLGRREEYDVLDKRRGRDPEMGGKPRRKNPQEGLYNELQKDKMAEAYSEIGMKGERRRGKGHDGLYQGLSTATKDTYDALHMQALPPR
